Results on one substance are retold here after article PMC7910423.

One may read the stoichiometry N as the number of molecules, sites or subunits per partner or assembly.

For this test, the target named is CMP-Pse5Ac7Ac synthetase PseF from Aeromonas caviae (Aeromonas caviae). The test is described as follows: SEC-MALS; 100 uL of AcPseF at 4 mg/mL on a Superdex S200 column in 20 mM Tris pH 7.8, 50 mM NaCl, 2 mM MgCl2; Wyatt HELEOS-II light scattering and rEX refractive index detectors; BSA as standard. For orientation: Size exclusion chromatography separates by hydrodynamic size, large species first.

The substance “CMP-Pse5Ac7Ac synthetase PseF from Aeromonas caviae (enzyme)” gave a percent present as homodimer of over 99% and a stoichiometry N of 2.
